The record followed here is patent US20240076386A1 (Pfizer, published 2024).

Assay [1] addresses T1, mouse E-selectin extracellular domain with 10 His purification tail (mouse, UniProt Q00690 22-557).
T1 construct: also called soluable mouse E-selectin extracellular domain; muE-Selctin
T1 sequence: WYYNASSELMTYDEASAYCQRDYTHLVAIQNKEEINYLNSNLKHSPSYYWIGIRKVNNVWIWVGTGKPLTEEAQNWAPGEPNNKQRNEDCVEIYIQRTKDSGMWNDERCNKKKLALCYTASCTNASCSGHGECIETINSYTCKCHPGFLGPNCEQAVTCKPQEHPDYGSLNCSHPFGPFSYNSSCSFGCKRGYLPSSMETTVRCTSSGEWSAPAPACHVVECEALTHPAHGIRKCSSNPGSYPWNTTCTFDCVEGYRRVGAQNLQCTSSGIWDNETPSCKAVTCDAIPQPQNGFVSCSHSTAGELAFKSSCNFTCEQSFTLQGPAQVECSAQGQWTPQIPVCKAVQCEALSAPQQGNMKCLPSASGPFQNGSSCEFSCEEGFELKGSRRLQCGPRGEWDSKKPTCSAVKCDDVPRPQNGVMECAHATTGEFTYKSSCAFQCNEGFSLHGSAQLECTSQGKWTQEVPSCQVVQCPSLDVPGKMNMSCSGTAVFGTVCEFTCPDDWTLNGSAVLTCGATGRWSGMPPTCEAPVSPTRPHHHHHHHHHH
Kind of assay: antigen binding ELISA, HRP detection. Here is the method:
384-well Maxisorp plates were used to capture the human and mouse His-tagged recombinant E-selectin polypeptides. The polypeptides were incubated with chimeric antibodies of varying concentrations and detected with HRP-labeled anti-human IgG1 antibodies.
Background: In an ELISA, binding on a coated surface is turned into a signal by an enzyme label.

Assay [2] deals with T1, mouse E-selectin extracellular domain …. Put plainly: SPR, antibody captured, E-selectin analyte. Here is the method: To characterize binding of antibodies to human, cynomolgus monkey, and mouse E-selectin, an antibody was diluted to 0.5 μg/mL in HBS-EP+ and captured by the anti-human IgG immobilized on flow cells 2, 3 and 4 for 30 seconds to 1 minute at a flow rate of 10 μL/minute to achieve a capture level of 70 to 300 RU. Flow cell 1 was used as a reference surface. […] HBS-EP+ buffer cycles collected for each captured antibody were used for double-referencing (Myszka D G. J. Mol. Recognition 1999; 12(5):279-84). At the end of each cycle, the entire anti-IgG surface was regenerated by a 30 second pulse of 3 M MgCl₂ and a 30 second pulse of ionic buffer (1.83 M MgCl₂, 0.92 M Urea, 1.83 M Guanidine HCl, pH 7.4) (Andersson K. Analy. Chem. 1999; 71(13): 2475-81). Kinetic assays were conducted at 25° C. at a collection rate of 10 Hertz (Hz) on a BIAcore™ T200 instrument (GE Healthcare). Rate constants and affinities were determined by fitting the data to a 1:1 binding model in BIAcore™ T200 Evaluation software version 3.0 (GE Healthcare).
For orientation: SPR reads the build-up and loss of mass on a sensor chip optically.

Assay [3] has the same target. Put plainly: AlphaLISA competition vs sialyl Lewis A-PAA-biotin. Here is the method:
The neutralization ability of anti-E-selectin antibodies was measured in an AlphaLISA homogenous competition assay. […] This was incubated at room temperature for 15 minutes, followed by addition of 1.4 μL of human, mouse or cynomolgus monkey E-selectin added to a final concentration of 7 nM. This was again incubated at room temperature for 15 minutes. To this, 1.4 μL AlphaLISA beads was added (Ni-donor/SA-acceptor) for a final assay concentration of 10 μg/mL. This was incubated in the dark at room temperate for at least 10 hours. The plates were then read using the AlphaLISA protocol (Envision).
On the technique in general: Alpha assays give light when donor and acceptor beads are brought close together.

B1: anti-E-selectin antibody 0027 chimera (antibody, human IgG1, kappa, V domains shown)
VH: EVHLHQSGPELGRPGSSVKISCKASGYTFTDYVMNWVRQSPGQGLEWIGWINPEDYSFDSGEKFLERATLTAATSSNTVYIQLSGLTSDDTATYFCVRGGLPGDWFAYWGQGTLVTVSS
VL: DIQMTQSPSFLSASVGDRITINCKTSQNINRYLNWFQQKLGEPPKLLIYNANSLQADIPSRFSGSGSGTDFTLTITSLQPEDVATYFCLQHHFWPYTFGAGTKLELRR
notes: rat VH/VL on effector-null human IgG1 (L234A, L235A, G237A, EU) and human kappa; directed to mouse E-selectin
By EC50 is commonly meant the midpoint of the concentration-response curve. As a reminder, the Kd is the constant that tells how readily two partners part at equilibrium. High values mean weaker binding, low ones tighter binding. In general, koff refers to a measure of how fast the partners let go of each other. One may read the kon as a measure of how fast the partners come together. Low values mean slower complex formation, high ones faster complex formation. One may read the t½ as how long it takes for the measured level to halve. High values mean slow decline, low ones rapid decline. B1 returned an EC50 in assay [1] of 0.02 nM. Also, in assay [2], binding was characterised by a dissociation constant (Kd) of 1.2 nM, the off-rate (koff) amounted to 0.000231 s⁻¹, the kon was determined as 192000 M⁻¹ s⁻¹ and the t½ was 50.2 min. In assay [3], the EC50 came out at 1 nM.
